The text below walks through data of patent US20060069024A1 (PURDUE RESEARCH FOUNDATION, published 2006).

Test [1] has as its target T1, PHO36t (product of the truncated PHO36 cDNA isolated in the screen) (Saccharomyces cerevisiae, UniProt Q12442 116-317, limits assumed).
T1 sequence (looked up): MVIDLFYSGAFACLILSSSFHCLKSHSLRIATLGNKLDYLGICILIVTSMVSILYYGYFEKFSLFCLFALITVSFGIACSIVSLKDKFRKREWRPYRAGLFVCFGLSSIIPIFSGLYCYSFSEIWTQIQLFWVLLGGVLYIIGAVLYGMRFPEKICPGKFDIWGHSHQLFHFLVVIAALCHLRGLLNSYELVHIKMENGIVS
The test is described as follows: cell-based or functional assay.

Test [2] deals with T2, PHO36 (endogenous, wild-type strain BWG7a) (Saccharomyces cerevisiae, UniProt Q12442 1-317).
T2 sequence (looked up): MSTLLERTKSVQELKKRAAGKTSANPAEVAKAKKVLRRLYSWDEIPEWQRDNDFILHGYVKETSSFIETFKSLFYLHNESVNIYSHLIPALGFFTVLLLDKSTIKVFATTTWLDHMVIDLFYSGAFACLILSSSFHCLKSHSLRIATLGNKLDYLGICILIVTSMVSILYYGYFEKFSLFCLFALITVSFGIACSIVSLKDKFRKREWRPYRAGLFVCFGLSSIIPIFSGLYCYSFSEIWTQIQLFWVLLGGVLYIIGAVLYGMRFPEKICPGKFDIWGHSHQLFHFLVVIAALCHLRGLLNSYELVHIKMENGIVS
The test is described as follows: cell-based or functional assay.

The target in test [3] is T3, PHO36MH (PHO36 with c-myc epitope and hexa-His tag fused in-frame at the C-terminus) (Saccharomyces cerevisiae, UniProt Q12442 1-317).
T3 construct: whole, on cells; Overexpressed in BWG7a from the multicopy plasmid pPHO36MH; It was used as a detergent-solubilised total membrane fraction in the pull-down and on spheroplasts in the 35S-osmotin assay; Bands of about 36 and 72 kDa were read as monomers and dimers; also called c-myc tagged PHO36; recombinant PHO36MH; not shown: c-myc tag; hexa-His tag
T3 sequence (looked up): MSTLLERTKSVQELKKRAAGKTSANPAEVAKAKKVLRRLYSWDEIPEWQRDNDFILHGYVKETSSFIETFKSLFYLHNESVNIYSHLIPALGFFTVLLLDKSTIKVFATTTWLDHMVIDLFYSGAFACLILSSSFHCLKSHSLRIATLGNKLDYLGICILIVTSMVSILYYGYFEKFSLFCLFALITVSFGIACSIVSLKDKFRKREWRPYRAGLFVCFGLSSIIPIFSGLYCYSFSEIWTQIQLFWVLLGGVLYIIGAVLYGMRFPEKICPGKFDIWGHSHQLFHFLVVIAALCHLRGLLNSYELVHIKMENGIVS
Kind of test: 35S-osmotin binding to yeast spheroplasts, scintillation counting, non-specific binding subtracted. On the procedure:
After extensive washing, bound proteins were dissociated, separated by SDS-PAGE and the c-Myc tag was immunodetected with mycl-9E10 antibodies. B. Spheroplasts (10⁹ml⁻¹) derived from the Δpho36 mutant (Δpho36), and the wild-type strain BWG7a carrying the plasmid pPHO36MH (pPHO36) were incubated with ³⁵S-osmotin (0.4 μM, 0.16 μCi) for 1 hr, without (none) or with a 10-fold molar excess of A9, BSA, or osmotin as competitors. After extensive washing, ³⁵S-osmotin retained on spheroplasts was counted.
³⁵S-Osmotin Binding Assay. Osmotin was radiolabeled to a specific-activity of 12 Ci mmol⁻¹ using the ³⁵SLR reagent (Amersham), according to manufacturer's instructions. Yeast cells were grown YPD medium until A₆₀₀ₙₘ 0.6 and then harvested by centrifugation. The pellet was resuspended in 1M sorbitol (A₆₀₀ₙₘ 6) and treated with lyticase (100 U ml⁻¹). After digestion of the cell wall was completed, spheroplasts were collected by centrifugation, washed twice with 1M sorbitol and resuspended in 1M sorbitol (10⁹ml⁻¹). The binding reaction was initiated by the addition of 2 μl of 35S-osmotin (1 μCi, 3 μg) to 300 μl of spheroplasts (0.3×10⁹). […] Spheroplasts were collected by centrifugation, washed twice, resuspended 1M sorbitol (50 μl) and counted in a liquid scintillation counter in 5 ml of EcoLume™ (ICN Biomedicals). […]

Test [4] deals with T4, STE7-Myc fusion protein (Saccharomyces cerevisiae, UniProt P06784 1-515, limits assumed).
T4 construct: Used as a cell extract of BWG7a expressing the fusion, as a control for the c-myc tag; also called c-myc tagged STE7; pNC267 product; not shown: Myc tag
T4 sequence (looked up): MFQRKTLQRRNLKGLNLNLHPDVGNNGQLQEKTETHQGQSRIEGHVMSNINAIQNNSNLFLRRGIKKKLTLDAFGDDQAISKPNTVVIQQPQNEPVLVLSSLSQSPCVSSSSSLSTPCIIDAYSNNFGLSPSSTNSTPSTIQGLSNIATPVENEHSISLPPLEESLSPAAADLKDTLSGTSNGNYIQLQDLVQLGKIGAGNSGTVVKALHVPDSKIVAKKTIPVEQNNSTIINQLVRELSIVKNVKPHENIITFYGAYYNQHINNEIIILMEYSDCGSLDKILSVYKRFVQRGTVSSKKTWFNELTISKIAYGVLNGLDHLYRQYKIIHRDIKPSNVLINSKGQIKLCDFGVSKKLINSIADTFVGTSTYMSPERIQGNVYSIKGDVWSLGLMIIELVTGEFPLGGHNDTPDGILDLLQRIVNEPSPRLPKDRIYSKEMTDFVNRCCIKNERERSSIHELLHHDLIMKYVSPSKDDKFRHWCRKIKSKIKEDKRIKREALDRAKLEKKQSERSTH
The test is described as follows: pull-down with osmotin-Sepharose 4B, anti-myc (myc1-9E10) immunoblot. On the procedure: FIG. 4: PHO36 Interacts Specifically with Osmotin In Vitro and In Vivo. A. Osmotin-Sepharose 4B was incubated with cell extract of the strain BWG7a expressing the fusion protein STE7-Myc (lane 1), total membrane fraction purified from the strain ΔPHO36 (lane 2) or total membrane fraction purified from the strain BWG7a expressing c-myc tagged PHO36 from the plasmid pPHO36MH (lanes 3-8) in the absence (lanes 1, 2, and 5) or presence of the competitor proteins A9 (100 μg, lane 3; or 10 μg, lane 7), osmotin (Osm; 100 μg, lane 4; or 10 μg, lane 6), or BSA (100 μg, lane 8). After extensive washing, bound proteins were dissociated, separated by SDS-PAGE and the c-Myc tag was immunodetected with mycl-9E10 antibodies. B. Spheroplasts (10⁹ml⁻¹) derived from the Δpho36 mutant (Δpho36), and the wild-type strain BWG7a carrying the plasmid pPHO36MH (pPHO36) were incubated with ³⁵S-osmotin (0.4 μM, 0.16 μCi) for 1 hr, without (none) or with a 10-fold molar excess of A9, BSA, or osmotin as competitors. After extensive washing, ³⁵S-osmotin retained on spheroplasts was counted.
Protein interaction assays in solution. Osmotin was coupled to CNBr-activated Sepharose 4B (Pharmacia Biotech) according to the manufacturer's instructions. […]

B1: osmotin (ligand)
chain: ATIEVRNNCPYTVWAASTPIGGGRRLDRGQTWVINAPRGTKMARVWGRTNCNFNAAGRGTCQTGDCGGVLQCTGWGKPPNTLAEYALDQFSGLDFWDISLVDGFNIPMTFAPTNPSGGKCHAIHCTANINGECPRELRVPGGCNNPCTTFGGQQYCCTQGPCGPTFFSKFFKQRCPDAYSYPQDDPTSTFTCPGGSTNYRVIFCPNGQAHPNFPLEMPGSDEVAK
notes: Purified osmotin (26 kDa globular protein, mostly a monomer in solution); also called tobacco PR-5 protein; 35S-osmotin
Take B1: in test [1], the “IC50 for osmotin of cells overexpressing PHO36t (viable counts after one hour of osmotin treatment, galactose medium)” value is 200 nM and the “fold change of IC50 for osmotin, cells overexpressing PHO36t against control cells with the empty vector” value is 3 fold. In test [2], the “IC50 for osmotin of control cells transformed with the empty vector (viable counts after one hour of osmotin treatment, galactose medium)” value was 600 nM and the “IC50 for osmotin of the wild type strain (compared with the PHO36 disruptant)” value is 600 nM. Also, in test [3], the “fold 35S-osmotin bound, spheroplasts of the PHO36MH-overexpressing strain against the wild-type strain with empty vector” value is around 3 times. In addition, the binding result in test [4] is listed as “no binding”.
